B1: DNA replication regulator DPB11 (Saccharomyces cerevisiae), P47027 (parent)
chain: MKPFQGITFCPTAINNEILAKKISKKIIKLGGIFSKDLTRQVNVLVVGSTTNTNKFKFAVKHRFDIIFIDIQAIDDIYQLWLSGENILPDSNTATMTGSTYEMLKILYRRFSFKYLHNFNIFIGRITDTNITSIDSLVRSIKKLGCSSYNYQNFVIKDTSSHNDDDDQGQNGQISIFVTDTLLGARVNAAIEQNIPIVHFKWILDCQKRSALLPYDPYYLLPNIKDLPYDSIGSNSCDCWDKINTTFPTNIDAQSSLQRQQSSSTLTPSLPKTSSLLNKFKPKGEKIWDKAMSLQQHSKTNFSVLGQSPLSINNKQEDLSDNSTLIFKNCAFIIHHIFPGNHRSILTKIVVQNGGKIETSYLSGIYDHSYYIIPSNKALDSFNDLPEIIDDNDGIVTEFFIERCLYYQKLLHPIDLWSKPFLSTIEFQVSSSSKLLHHEFSSSPFLNVTITGFSGVELLHLTKVLNLLKPMGINYVEYLNKSTDILLINLAALPSIPKTHPLWSNEFSDLFTQFCINNNNDDPGDNNRKDFQNNSILRNSMKRKIEYIKKFHSIPVVTPAFIFKLLSAASGENNEIFLNNIKWCIICPRGHKDDFKCKIKKPYYTSISSEKKYQNNDPKIDKTILLKRNNSSLSEHSMKDTKNELLQKIRETDSGRKKRSVSSSIMDVSSERQMPDTKRIKLESLPKNFVPKQIKRTTSWGTIMSENVPTEQPTAISNPEEIPRTEEVSHTQVTYGSIQDKKRTASLEKPMRRQTRNQTKELDS
partner: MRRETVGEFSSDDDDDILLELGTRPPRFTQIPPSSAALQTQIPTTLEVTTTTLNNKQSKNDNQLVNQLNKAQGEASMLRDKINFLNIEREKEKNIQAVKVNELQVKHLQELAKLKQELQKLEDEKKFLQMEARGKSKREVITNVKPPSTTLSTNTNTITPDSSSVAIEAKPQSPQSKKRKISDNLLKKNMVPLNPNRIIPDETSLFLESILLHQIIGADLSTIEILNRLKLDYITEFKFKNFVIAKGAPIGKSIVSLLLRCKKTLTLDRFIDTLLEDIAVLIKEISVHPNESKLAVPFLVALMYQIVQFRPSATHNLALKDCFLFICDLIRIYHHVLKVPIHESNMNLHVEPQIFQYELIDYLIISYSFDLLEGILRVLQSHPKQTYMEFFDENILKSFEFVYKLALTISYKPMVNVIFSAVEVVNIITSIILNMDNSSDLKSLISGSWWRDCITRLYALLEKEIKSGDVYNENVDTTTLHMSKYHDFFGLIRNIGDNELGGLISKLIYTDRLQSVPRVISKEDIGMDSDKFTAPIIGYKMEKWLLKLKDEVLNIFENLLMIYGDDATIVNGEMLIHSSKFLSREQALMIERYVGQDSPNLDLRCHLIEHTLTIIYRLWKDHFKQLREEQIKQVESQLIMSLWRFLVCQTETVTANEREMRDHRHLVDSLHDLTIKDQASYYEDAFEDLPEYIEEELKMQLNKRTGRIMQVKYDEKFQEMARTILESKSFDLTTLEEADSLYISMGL
B2: DNA repair protein RAD9 (Saccharomyces cerevisiae), P14737 (parent)
chain: MSGQLVQWKSSPDRVTQSAIKEALHSPLADGDMNEMNVPVDPLENKVNSTNIIEGSPKANPNPVKFMNTSEIFQKSLGLLDESPRHDDELNIEVGDNDRPNANILHNERTPDLDRIANFFKSNRTPGKENLLTKYQSSDLEDTPLMLRKKMTFQTPTDPLEQKTFKKLKSDTGFCYYGEQNDGEENASLEVTEADATFVQMAERSADNYDCALEGIVTPKRYKDELSKSGGMQDERVQKTQIMISAESPNSISSYDKNKITGNGRTTRNVNKVFNNNEDNIGAIEEKNPVKKKSENYSSDDLRERNNQIIQSNESEEINELEKNLNVSGRENDVNNLDIDINSAVSGTPSRNNAEEEMYSSESVNNREPSKKWIFRYSKDKTENNSNRSTQIVNNPRTQEMPLDSISIDTQPLSKSFNTETNNELETQIIVSSLSQGISAQKGPVFHSTGQTEEIKTQIINSPEQNALNATFETPVTLSRINFEPILEVPETSSPSKNTMSKPSNSSPIPKEKDTFNIHEREVETNNVFSNDIQNSSNAATRDDIIIAGSSDFNEQKEITDRIYLQLSGKQISDSGSDETERMSPNELDTKKESTIMSEVELTQELPEVEEQQDLQTSPKKLVVEEETLMEIKKSKGNSLQLHDDNKECNSDKQDGTESLDVALIEHESKGQSSELQKNLMQLFPSESQEIIQNRRTIKRRQKDTIEIGEEEENRSTKTSPTKHLKRNSDLDAASIKREPSCSITIQTGETGSGKDSKEQSYVFPEGIRTADNSFLSKDDIIFGNAVWCQYTWNYKFYPGILLEVDTNQDGCWIYFETGRSLTKDEDIYYLDIRIGDAVTFDGNEYVVVGLECRSHDLNIIRCIRGYDTVHLKKKNASGLLGKRTLIKALSSISLDLSEWAKRAKIILEDNEKNKGDAYRYLRHPIRGRKSMTNVLSPKKHTDDEKDINTHTEVYNNEIESSSEKKEIVKKDSRDALAEHAGAPSLLFSSGEIRTGNVFDKCIFVLTSLFENREELRQTIESQGGTVIESGFSTLFNFTHPLAKSLVNKGNTDNIRELALKLAWKPHSLFADCRFACLITKRHLRSLKYLETLALGWPTLHWKFISACIEKKRIVPHLIYQYLLPSGESFRLSLDSPSKGGIIKSNNIFSFYTQFLRGSNLRDQICGVKKMLNDYIVIVWGRSELDSFVKFAFACLSAGRMLTIDLPNIDVDDTEPLLNALDSLVPRIGSELSNRKLKFLIYANENNGKSQMKLLERLRSQISLKFKKFNYIFHTESKEWLIQTIINEDTGFHDDITDNDIYNTISEVR
partner: B1 chain

Variants of: B1
Conditions: with lcd1_yeast LCD1, Q04377

effect of a mutation on the interaction	Variant
decreasing interaction	G736A
decreasing interaction	Y735A

Variants of: B1
Conditions: with lcd1_yeast LCD1, Q04377
Remark: another data set of the same source

effect of a mutation on the interaction	Variant
disrupting interaction	W700A
disrupting interaction	G701A

Variants of: B1
Conditions: with lcd1_yeast LCD1, Q04377
Remark: another data set of the same source

effect of a mutation on the interaction	Variant
decreasing interaction	G701A

Variants of: B2
Conditions: with dpb11_yeast DPB11, P47027

effect of a mutation on the interaction	Variant
disrupting interaction	T474A
disrupting interaction	S462A

Variants of: B2
Conditions: with dpb11_yeast DPB11, P47027
Remark: another data set of the same source

effect of a mutation on the interaction	Variant
decreasing interaction	T474A
